Results taken from the Human Domainome abundance scans (Beltran et al. 2025).
± gives the uncertainty stated by the source.

B1: Histone-lysine N-methyltransferase 2A, residues 1148 to 1194; numbered along this chain, Q03164 (parent)
chain: KGRRSRRCGQCPGCQVPEDCGVCTNCLDKPKFGGRNIKKQCCKMRKC

Variants of: B1
Assay: abundance fitness (aPCA) (normalised: wild type 0, dead -1); higher = more abundant; growth selection in yeast, the domain comes from the species named
Settings: Homo sapiens

Abundance fitness of substitutions, site by site:
T24: P -0.091 ± 0.13, F -0.412 ± 0.13, I -0.345 ± 0.12, A -0.143 ± 0.099, Y -0.238 ± 0.15, Q -0.067 ± 0.12, C -0.441 ± 0.12, E 0.038 ± 0.12, H -0.069 ± 0.13, N -0.521 ± 0.19, K -0.297 ± 0.16, V -0.479 ± 0.094, G -0.207 ± 0.086, R -0.611 ± 0.095, M -0.149 ± 0.14, L -0.477 ± 0.091, S -0.256 ± 0.1, W -0.392 ± 0.11
G33: V -0.418 ± 0.085, N -0.289 ± 0.16, T -0.526 ± 0.12, A -0.394 ± 0.089, W -0.853 ± 0.15, K -0.936 ± 0.16, R -0.783 ± 0.093, Q -0.535 ± 0.13, P -0.707 ± 0.14, L -0.631 ± 0.099, M -0.494 ± 0.11, C -0.677 ± 0.16, F -1.04 ± 0.23, Y -0.613 ± 0.24
D28: I -0.628 ± 0.2, F -0.856 ± 0.15, R -0.618 ± 0.11, P -0.937 ± 0.2, K -0.752 ± 0.25, M -0.761 ± 0.2, L -0.921 ± 0.12, T -1.09 ± 0.36, V -0.374 ± 0.091, G -0.461 ± 0.088, Q -0.509 ± 0.22, N -0.326 ± 0.11, Y -0.657 ± 0.22, S -0.626 ± 0.1, H -1 ± 0.29, W -1.05 ± 0.17, A -0.475 ± 0.11, E -0.502 ± 0.12, C -0.868 ± 0.16
Q40: M -0.138 ± 0.14, D -0.03 ± 0.17, I -0.772 ± 0.29, V -0.042 ± 0.088, T -0.234 ± 0.14, A -0.317 ± 0.11, N -0.461 ± 0.27, L -0.177 ± 0.1, E 0.312 ± 0.13, Y -0.493 ± 0.21, C -0.284 ± 0.14, S -0.103 ± 0.097, W -0.545 ± 0.1, H -0.312 ± 0.18, R -0.229 ± 0.084, G 0.034 ± 0.08, K -0.249 ± 0.15, P -0.512 ± 0.14, F -0.089 ± 0.2
C23: R -0.884 ± 0.097, Q -0.623 ± 0.16, I -0.505 ± 0.2, E -0.543 ± 0.11, Y -0.987 ± 0.17, W -1.03 ± 0.16, H -1.07 ± 0.26, D -0.516 ± 0.13, F -1 ± 0.19, G -0.648 ± 0.088, T -0.641 ± 0.14, N -0.766 ± 0.21, P -0.736 ± 0.16, K -1 ± 0.16, V -0.814 ± 0.094
P30: G -0.213 ± 0.082, Q -0.381 ± 0.13, E 0.109 ± 0.13, K -0.669 ± 0.19, A -0.187 ± 0.099, T -0.312 ± 0.14, L -0.361 ± 0.087, R -0.432 ± 0.091, H -0.26 ± 0.18, N 0.057 ± 0.18, F -0.705 ± 0.27, I -0.256 ± 0.21, V -0.594 ± 0.096, Y -0.712 ± 0.21, W -0.711 ± 0.14, S -0.303 ± 0.1, D -0.77 ± 0.2
C42: A -0.952 ± 0.14, I -1 ± 0.18, H -0.809 ± 0.18, T -0.824 ± 0.14, V -0.813 ± 0.11, R -0.569 ± 0.091, Q -0.955 ± 0.19, M -1.01 ± 0.2, N -1 ± 0.18, G -0.909 ± 0.098, E -0.604 ± 0.15, P -0.709 ± 0.14, D -0.849 ± 0.21, F -0.647 ± 0.11, L -0.651 ± 0.097, W -0.821 ± 0.15
F32: P -0.257 ± 0.087, L -0.327 ± 0.075, H -0.091 ± 0.078, W -0.337 ± 0.14, T -0.272 ± 0.087, S -0.185 ± 0.077, R -0.496 ± 0.094, E 0.186 ± 0.17, A -0.013 ± 0.092, Q -0.09 ± 0.13, C -0.286 ± 0.093, I -0.641 ± 0.099, N -0.228 ± 0.09, Y -0.068 ± 0.087, D 0.01 ± 0.098, K -0.39 ± 0.13
R35: V -0.089 ± 0.074, K 0.19 ± 0.12, G 0.022 ± 0.075, W -0.524 ± 0.14, P 0.075 ± 0.097, T -0.016 ± 0.096, M 0.143 ± 0.1, H 0.128 ± 0.13, A 0.189 ± 0.084, D 0.168 ± 0.1, F -0.043 ± 0.13, S -0.01 ± 0.083, C -0.229 ± 0.14, Q 0.065 ± 0.12, I -0.438 ± 0.17, N 0.343 ± 0.14, Y -0.036 ± 0.16
N36: T -0.731 ± 0.15, V -0.814 ± 0.12, G -0.091 ± 0.075, M -0.274 ± 0.2, L -0.651 ± 0.11, I -0.952 ± 0.33, H -0.076 ± 0.18, R -0.672 ± 0.1, Q 0.151 ± 0.18, P -0.62 ± 0.14, K -0.63 ± 0.15, S -0.523 ± 0.092, C -0.344 ± 0.11, E 0.003 ± 0.091, D 0.134 ± 0.11, F -0.694 ± 0.18, Y -0.569 ± 0.17, A -0.339 ± 0.09, W -0.595 ± 0.11
K29: E -0.519 ± 0.31, N -0.55 ± 0.3, S -0.416 ± 0.13, P -0.58 ± 0.22, G -0.463 ± 0.13, W -0.686 ± 0.2, F -0.648 ± 0.32, Y -0.564 ± 0.25, T -0.397 ± 0.18, L -0.671 ± 0.12, M -0.408 ± 0.14, Q -0.427 ± 0.19, H -0.618 ± 0.23, D -0.411 ± 0.25, R -0.368 ± 0.11, V -0.51 ± 0.14
G34: T -0.316 ± 0.1, P -0.448 ± 0.11, H -1.07 ± 0.25, E -0.133 ± 0.098, Y -0.774 ± 0.19, S -0.288 ± 0.088, D -0.236 ± 0.1, K -0.478 ± 0.15, F -0.409 ± 0.13, A -0.463 ± 0.089, R -0.52 ± 0.082, V -0.453 ± 0.084, I -0.787 ± 0.2, C -0.32 ± 0.11, W -0.906 ± 0.11
K39: I -0.161 ± 0.15, C -0.2 ± 0.11, N -0.35 ± 0.17, Q 0.042 ± 0.11, T -0.187 ± 0.12, L -0.086 ± 0.091, P -0.06 ± 0.1, V 0.063 ± 0.083, E 0.156 ± 0.13, A -0.074 ± 0.1, W -0.416 ± 0.11, S 0.007 ± 0.093, G -0.004 ± 0.076, M -0.124 ± 0.12, H -0.11 ± 0.17, R -0.185 ± 0.086, D 0.101 ± 0.14, Y -0.683 ± 0.21
C26: T -0.959 ± 0.18, Y -0.851 ± 0.13, R -0.602 ± 0.1, M -0.876 ± 0.16, G -0.974 ± 0.11, K -0.785 ± 0.18, P -0.75 ± 0.16, V -1.04 ± 0.14, E -0.81 ± 0.18, F -0.991 ± 0.27, D -0.76 ± 0.18, H -0.988 ± 0.29, W -0.778 ± 0.15, L -0.902 ± 0.12, S -1.02 ± 0.13, A -0.914 ± 0.15
L27: Q -0.064 ± 0.14, K -0.293 ± 0.13, E -0.129 ± 0.13, F -0.353 ± 0.15, S -0.554 ± 0.1, Y -0.334 ± 0.19, R -0.35 ± 0.096, W -0.554 ± 0.12, D -0.419 ± 0.19, C -0.569 ± 0.16, V -0.539 ± 0.097, A -0.257 ± 0.1, P -0.799 ± 0.2, N -0.518 ± 0.26, H -0.34 ± 0.38, G -0.583 ± 0.11
K31: A -0.195 ± 0.1, I -0.24 ± 0.084, M -0.444 ± 0.1, T -0.264 ± 0.082, Y -0.253 ± 0.086, P -0.227 ± 0.086, Q -0.285 ± 0.11, R -0.311 ± 0.09, L -0.316 ± 0.074, S -0.404 ± 0.075, G -0.319 ± 0.12, H -0.429 ± 0.093, N -0.159 ± 0.096, F -0.627 ± 0.088, E -0.271 ± 0.19, W -0.685 ± 0.13
C41: V 0.094 ± 0.089, G 0.04 ± 0.082, R -0.014 ± 0.083, D 0.3 ± 0.16, Q 0.119 ± 0.11, I 0.048 ± 0.16, S -0.066 ± 0.09, F -0.095 ± 0.12, P 0.028 ± 0.11, A -0.104 ± 0.095, H 0.098 ± 0.13, Y -0.322 ± 0.13, W -0.095 ± 0.1, N 0.27 ± 0.17, L -0.241 ± 0.09, T -0.195 ± 0.12, M 0.127 ± 0.098, K -0.123 ± 0.12
I37: D 0.265 ± 0.11, K -0.166 ± 0.16, W -0.431 ± 0.099, E 0.274 ± 0.12, V 0.02 ± 0.078, S 0.037 ± 0.084, M 0.002 ± 0.13, Q -0.024 ± 0.15, L -0.159 ± 0.086, G -0.056 ± 0.072, A -0.025 ± 0.09, T -0.153 ± 0.13, P -0.554 ± 0.14, N 0.093 ± 0.17, C 0.095 ± 0.097, R -0.421 ± 0.082, H -0.258 ± 0.17, Y -0.265 ± 0.22
K38: S -0.011 ± 0.095, A -0.099 ± 0.096, Q -0.348 ± 0.15, G -0.35 ± 0.095, T -0.221 ± 0.12, D -0.111 ± 0.16, M -0.136 ± 0.15, P -0.29 ± 0.14, F -0.125 ± 0.16, E -0.166 ± 0.12, I 0.275 ± 0.2, R -0.036 ± 0.085, W -0.245 ± 0.14, L 0.143 ± 0.088, C -0.363 ± 0.12
N25: G -0.342 ± 0.091, H -0.374 ± 0.14, W -0.107 ± 0.1, T -0.325 ± 0.1, R -0.599 ± 0.084, M -0.084 ± 0.1, S 0.024 ± 0.083, F -0.377 ± 0.14, K -0.633 ± 0.15, L -0.536 ± 0.085, Q -0.481 ± 0.12, A -0.078 ± 0.082, V -0.02 ± 0.095, Y -0.148 ± 0.12, I 0.121 ± 0.13, D -0.233 ± 0.15
